Source: PMC6626918 (Frontiers in Microbiology, 2019)

Columns and labels:
AhpC (BthAhpC) = target: T1, AhpC (BthAhpC) (Burkholderia thailandensis, UniProt Q2SWT3); details: read-out: Systems / AhpD / Km
T1 construct: gene BTH_I2092

[1] = target: Alkyl hydroperoxide reductase subunit C (AhpC) of Burkholderia thailandensis E264, GST-tagged (Burkholderia thailandensis E264) (UniProt Q2SWT3)

Compound	Km (AhpC (BthAhpC)) [µM]	Km of AhpC peroxidase activity for TrxC (NADPH consumption at 340 nm; TrxC varied 0-500 μM, 1 μM AhpC, 1 mM CHP, TrxR system) [1] [µM]	Km of AhpC peroxidase activity for TrxC (NADPH consumption at 340 nm; TrxC varied 0-500 μM, 1 μM AhpC, 1 mM H2O2, TrxR system) [1] [µM]	Km of AhpC peroxidase activity for TrxC (NADPH consumption at 340 nm; TrxC varied 0-500 μM, 1 μM AhpC, 1 mM t-BOOH, TrxR system) [1] [µM]
CC(C)(OO)c1ccccc1 [CHP]	57.6 ± 1.2			
Thioredoxin C (TrxC) of Burkholderia thailandensis E264 (enzyme)		147	348	202
CC(C)(C)OO [t-BOOH]	60.1 ± 1.8			
